These results are taken from US20260137802A1 (CRISPR THERAPEUTICS, published 2026).

For orientation: EC50 means the concentration at which the effect is half-maximal.

Bounds are passed on as bounds.

Assay [1] concerns the target T1, human CD117 ectodomain (human, UniProt P10721 26-524, biotinylated (BirA co-expression) where captured on streptavidin biosensors).
T1 construct: extracellular domain; also called cKIT; full length AviTagged CD117 ectodomain; not shown: C-terminal AviTag or His tag
The assay can be described thus: ELISA, human CD117, bivalent Fc fusion.

In assay [2] the target is T2, human CD117 on cells (SKMEL-3 cells, CD34+ HSC) (human, UniProt P10721 26-976).
T2 construct: whole, on cells; also called CD117 on cell surfaces; CD117+ cells
Kind of assay: flow cytometry, CD34+ HSC, bivalent Fc. A general note: Flow cytometry measures light scatter and fluorescence of single cells or particles in a stream.

The target in assay [3] is T2, human CD117 on cells (SKMEL-3 cells, …). Kind of assay: flow cytometry, skMEL-3 cells, bivalent Fc.
For assay [4], the target named is cynomolgus monkey CD117 ectodomain (cynomolgus monkey). The assay can be described thus: BLI (Octet), biotinylated ectodomain on SA biosensor, 1:1 global fit, bivalent Fc.
The target of assay [5] is T1, human CD117 ectodomain. The description is as above. The source says:
(§1) Pre-equilibrated streptavidin biosensors (SA, from Sartorius) were coated with biotinylated CD117 ectodomain by dipping the biosensors into wells containing an optimized dilution of human or cyno CD117 ectodomain. After re-equilibrating the biosensor tips in assay buffer, the biosensors were dipped into supernatant containing the VHH antibodies to allow association between the antibodies and the CD117 ectodomain. Finally, the biosensors were dipped into the assay buffer. The VHH antibodies disassociated from the CD117 ectodomain if association occurred. The association and dissociation of each VHH antibody was characterized qualitatively to identify VHHs that could bind both human and cyno CD117 ectodomains.
(§2) For example, kinetics parameters of the top VHH antibodies for binding to human CD117 and cynomolgus monkey CD117 ectodomain were obtained from the Octet® analysis by Biolayer Interferometry as described above. A minimum of three concentrations of purified VHH antibodies were tested per ectodomain target. The Octet® software was used to perform a global kinetic fit across all concentrations using a 1:1 binding model. This allowed determination of the kinetic parameters, association rate (kₒₙ), dissociation rate (koff) and equilibrium constant (KD) for the 9 antibodies of interest. Total chi-squared (X²) was also examined to determine the goodness of fit for the software's kinetic model.

Assay [6] deals with T2, human CD117 on cells (SKMEL-3 cells, …). The assay can be described thus: flow cytometry, CD34+ HSC, monomeric Fc.
In assay [7] the target is T1, human CD117 ectodomain. Kind of assay: ELISA, human CD117, monovalent Fc fusion. Background: An ELISA detects its analyte on a solid surface through an enzyme-linked reagent.
Assay [8] has as its target T2, human CD117 on cells (SKMEL-3 cells, …). The assay can be described thus: flow cytometry, skMEL-3 cells, monomeric Fc.
In assay [9] the target is T1, human CD117 ectodomain. Kind of assay: BLI (Octet), biotinylated ectodomain on SA biosensor, 1:1 global fit, monomeric Fc.
Text: as §1, §2
For orientation: Biolayer interferometry detects binding as a change in optical thickness at a sensor tip.

In assay [10] the target is T3, truncated CD117 ectodomain, Domain 1 (UniProt P10721 26-112, limits assumed, biotinylated).
T3 construct: domain: Domain 1; not shown: AviTag
The assay can be described thus: BLI, truncated ectodomain on SA biosensor. The method, then:
To identify the approximate binding epitopes of the VHH antibodies, truncated ectodomains were expressed as fusion polypeptides with an AviTag. Additionally, biotin is added to the protein during expression to allow capture of the material onto Streptavidin-coated (SA) biosensors. SA biosensors (Sartorius) were incubated with one of the truncated ectodomains. Full length CD117 ectodomain was used as a control. […] Except for P29 and P37, all others bind Domains 1-2 and Domains 1-3. Except for P37, all others bind Domains 1-4.

T2 sequence (P10721 26-976): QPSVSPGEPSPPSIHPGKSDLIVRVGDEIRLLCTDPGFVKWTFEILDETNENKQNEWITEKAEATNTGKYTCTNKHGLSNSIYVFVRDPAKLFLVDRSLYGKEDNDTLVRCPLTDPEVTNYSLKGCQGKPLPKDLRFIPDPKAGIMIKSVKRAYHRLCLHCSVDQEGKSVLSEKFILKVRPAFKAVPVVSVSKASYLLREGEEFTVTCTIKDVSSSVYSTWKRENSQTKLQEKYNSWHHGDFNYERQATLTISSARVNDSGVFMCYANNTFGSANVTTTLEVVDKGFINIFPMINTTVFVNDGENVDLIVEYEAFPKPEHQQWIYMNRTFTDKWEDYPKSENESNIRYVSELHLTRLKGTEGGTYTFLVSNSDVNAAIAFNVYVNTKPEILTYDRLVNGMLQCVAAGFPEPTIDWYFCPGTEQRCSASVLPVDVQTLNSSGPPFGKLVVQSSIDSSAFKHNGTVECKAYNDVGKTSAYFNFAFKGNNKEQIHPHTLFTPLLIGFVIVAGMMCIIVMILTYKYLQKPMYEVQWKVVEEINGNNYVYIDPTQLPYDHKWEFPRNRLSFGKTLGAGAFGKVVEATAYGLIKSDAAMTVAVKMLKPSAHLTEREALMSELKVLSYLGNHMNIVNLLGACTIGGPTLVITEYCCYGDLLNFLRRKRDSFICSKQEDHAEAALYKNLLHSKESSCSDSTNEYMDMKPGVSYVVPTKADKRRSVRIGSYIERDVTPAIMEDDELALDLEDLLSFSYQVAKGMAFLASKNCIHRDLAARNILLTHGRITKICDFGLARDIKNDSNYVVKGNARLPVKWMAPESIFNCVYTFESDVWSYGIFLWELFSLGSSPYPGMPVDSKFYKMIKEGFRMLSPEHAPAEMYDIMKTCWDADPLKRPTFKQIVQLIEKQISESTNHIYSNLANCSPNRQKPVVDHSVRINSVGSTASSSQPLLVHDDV
T1 sequence (P10721 26-524): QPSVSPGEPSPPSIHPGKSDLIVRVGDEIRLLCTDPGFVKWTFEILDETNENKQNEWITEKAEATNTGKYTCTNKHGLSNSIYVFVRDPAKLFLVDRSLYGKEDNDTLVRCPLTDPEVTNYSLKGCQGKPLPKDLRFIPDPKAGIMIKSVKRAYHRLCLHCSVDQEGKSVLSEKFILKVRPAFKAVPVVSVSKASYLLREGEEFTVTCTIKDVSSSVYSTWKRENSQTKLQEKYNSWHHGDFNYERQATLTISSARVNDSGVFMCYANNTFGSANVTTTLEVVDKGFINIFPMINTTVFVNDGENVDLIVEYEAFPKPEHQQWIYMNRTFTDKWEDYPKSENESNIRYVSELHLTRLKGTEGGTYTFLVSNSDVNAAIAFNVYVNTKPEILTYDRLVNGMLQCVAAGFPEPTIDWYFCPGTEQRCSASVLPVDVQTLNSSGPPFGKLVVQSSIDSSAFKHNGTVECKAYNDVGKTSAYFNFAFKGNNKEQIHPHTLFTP
T3 sequence (P10721 26-112 limits assumed): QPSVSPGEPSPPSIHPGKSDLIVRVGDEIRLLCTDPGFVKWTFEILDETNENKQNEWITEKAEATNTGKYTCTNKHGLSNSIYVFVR

B1: P-0058 (Fc fusion)
chain: QVQLVESGGGLVQAGDSLRLSCAVSGRTLSNYFMAWLRQAPGKEREFVAAIHWSLGSTYYQDPVKGRFTISRDKAKNTVYLQMNTLKPEDTATYICAAGQHLSGLGGSAWSIEGDYWGQGTQVTVSS
notes: also called P58; bivalent form of P37; not shown: Fc fragment
With B1, the Kd in the assay with human CD117 ectodomain [1] is 0.33 nM; in assay [4] it was 0.00166 nM; with human CD117 ectodomain [5], 0.00189 nM. In addition, the EC50 in [2] worked out at 50 nM; in assay [3] it was 3 nM.

B2: P-0054 (Fc fusion)
chain: QVHLVESGGGLVQAGGSLGLSCAASGHTFSNYAMGWFRQAPGKEREFVAAISWSGGSTLYADSVKGRFTISRDNGENTVYLQMNSLKPEDTAVYYCALDSTGVYGTGYVSSRKGRYEYWGQGTLVTVSS
notes: also called P54; bivalent form of P29; not shown: Fc fragment
For the molecule B2, the Kd with human CD117 ectodomain [1] was determined as 0.54 nM; in [4] it was 19.8 nM; with human CD117 ectodomain [5] it was 0.00682 nM. The EC50 in assay [2] and in assay [3] was above 50 nM each time.

B3: P-0029 (Fc fusion)
chain: B2 chain
notes: Any second Fc chain without VHH is not described in the text; also called monovalent form of P29; not shown: Fc fragment
Take B3: the EC50 in assay [6] was 50 nM; in assay [8] it was above 50 nM. For the same molecule, the results for the Kd with human CD117 ectodomain [7] and with human CD117 ectodomain [9] were 2.48 nM and 37.4 nM, respectively.

B4: P-0059 (Fc fusion)
chain: QVQLVESGGGLVQAGGSLRLSCTASGDTFSSYSMGWFRQGPGKEREFVGGIRWSGGTTYYADSVKGRFTISRDNAKNTVYLQMNSLKREDTAVYYCAAVRRRWLIWQEEEYDYWGQGTLVTVSS
notes: also called P59; bivalent form of P12; not shown: Fc fragment
B4: the results for the Kd (with human CD117 ectodomain [1]; in [4]; in the assay with human CD117 ectodomain [5]) were 0.06 nM, 0.0112 nM and 0.0446 nM, respectively. Further, the EC50 in [2] and in assay [3] was 50 nM each time.

B5: P-0012 (Fc fusion)
chain: B4 chain
notes: Any second Fc chain without VHH is not described in the text; also called monovalent form of P12; not shown: Fc fragment
For the molecule B5, the EC50 in [6] and in assay [8] was above 10 nM each time. Further, the Kd was 1.04 nM with human CD117 ectodomain [7] and 49.2 nM in the assay with human CD117 ectodomain [9].

B6: P-0057 (Fc fusion)
chain: QVQLVESGGGLVQAGDSLRLSCAASGRTFSSYAMGWFRQAPGKEREFVASITSSGLVAYYGDSVEARFTISRDNAKNTVYLQMDSLKPEDTAVYYCAARQYVGSGSYYLKKEGGYEYWGPGTQVTVSS
notes: the alignment instead labels 'P35/P57' and 'P32/P56'; also called P57; not shown: Fc fragment
In the case of B6, the Kd in the assay with human CD117 ectodomain [1] came out at 0.21 nM; in assay [4] it was 1.7 nM; with human CD117 ectodomain [5], 0.00215 nM.

B7: P32 (VHH)
VHH: B6 chain
notes: also called anti-CD117 VHH P32
For B7, in assay [10], the binding result is listed as “no binding”.

B8: P-0056 (Fc fusion)
chain: QVQLVESGGGLVQAGGSLRLSCAASGGTFSIYPVGWFRQAPGKQREFVAAIGWSASGTYYGDSVEGRFTVSRDNARSTVYLRMSSLKPDDTAVYYCAAASGSNWRLGAIDEYDSWGQGTQVTVSS
notes: the alignment instead labels 'P35/P57' and 'P32/P56'; also called P56; not shown: Fc fragment
Consider B8, for which the Kd in the assay with human CD117 ectodomain [1] was determined as 0.36 nM; in assay [4], 0.647 nM; with human CD117 ectodomain [5], 0.602 nM. The figures for the EC50 in [2] and in [3] were 10 nM and 3 nM, respectively.

B9: P35 (VHH)
VHH: B8 chain
notes: also called anti-CD117 VHH P35
Regarding B9, the binding result in assay [10] is “no binding”.

B10: P-0072 (Fc fusion)
chain: EVQLVESGGGLVQAGGSLRLSCAASGRTSGSYVMGWFRQAPGKEREFVAAISWSAGMTYYADSVKGRFTISRDNAKNTVYLQMNSLKPEDTAVYYCAADQRGVPAYYSDYALYDYWGQGTQVTVSS
notes: also called P72; bivalent form of P38; not shown: Fc fragment
Regarding B10, the results for the Kd (in the assay with human CD117 ectodomain [1]; in assay [4]; with human CD117 ectodomain [5]) were 0.21 nM, 0.0112 nM and 0.00126 nM, respectively. Besides, the EC50 in assay [2] was determined as 2 nM; in assay [3] it was 1 nM.

B11: P38 (VHH)
VHH: B10 chain
notes: also called P38/P72; anti-CD117 VHH P38
B11: the binding result in assay [10] is given as “no binding”.

B12: P-0055 (Fc fusion)
chain: EVQLVESGGGLVRAGGSLRLSCAASGRTFTYDARAWFRQAPGKEREFVAAISWSGGSTYYPNSMKGRFTISRDNAKNTVYLQMNSLKPEDTAVYYCAADESFPAYYSDYALYRYWGQGTLVTVSS
notes: also called P55; bivalent form of P31; not shown: Fc fragment
In the case of B12, the values for the Kd (with human CD117 ectodomain [1]; in [4]; with human CD117 ectodomain [5]) were 0.22 nM, 0.961 nM and 0.00124 nM, respectively. Besides, the EC50 in [2] and in [3] was 1 nM each time.

B13: P31 (VHH)
VHH: B12 chain
notes: also called P31/P55; anti-CD117 VHH P31
For B13, the binding result in assay [10] is reported as “no binding”.

B14: P-0053 (Fc fusion)
chain: QVQLVESGGGLVQAGGSLRLSCVASGRTFSSYAMGWFRQGPGKEREFAAAILSNGLTTYYADSVKGRFTISRDNAKDTVYLQMNSLKPEDTANYYCAAAFTPEFRDGGIWDDASVDYWGQGTQVTVSS
notes: also called P53; bivalent form of P10; not shown: Fc fragment
As to B14, the Kd in the assay with human CD117 ectodomain [1] was 0.16 nM; in assay [4], 0.00136 nM; with human CD117 ectodomain [5], below 0.001 nM. The EC50 in assay [2] and in assay [3] was 1 nM each time.

B15: P10 (VHH)
VHH: B14 chain
notes: also called P10/P53; anti-CD117 VHH P10
Consider B15, for which the binding result in assay [10] is “no binding”.

B16: P-0060 (Fc fusion)
chain: EVQLVESGGGLVRAGGSLRLSCAASGRTTFSTYWLGWFRQAPGKNREFVAAISWSAGMAYYQDSKGRFTISRDNTKNTAYLQMNSLQPEDTAVYYCAAGRFHPIRVDTALYWAQGTQVTVSS
notes: also called P60; bivalent form of P27; not shown: Fc fragment
For the molecule B16, the Kd in the assay with human CD117 ectodomain [1] came out at 0.14 nM; in [4], 2.16 nM; in the assay with human CD117 ectodomain [5], 0.24 nM. In addition, the EC50 in assay [2] and in assay [3] was 2 nM each time.

B17: P27 (VHH)
VHH: B16 chain
notes: also called P27/P60; anti-CD117 VHH P27
Turning to B17, the binding result in [10] is “no binding”.
